The target of assay [1] is T1, FcγRIA (CD64) (UniProt P12314 16-292, limits assumed).
T1 construct: also called FcgRIa; FcγR1A
The experiment in a line: SPR (Biacore T200); mAb captured on Protein A, FcγRIA injected. In general terms: Surface plasmon resonance follows binding to a sensor surface in real time, without labels.
Method: (§1) Specifically, FcγRIA was injected over anti-CD154 antibody pools immobilized onto a Protein A surface (2,000 Rus; Cat #Z02201 […] ®, Piscataway, N.J.), using PBST pH 7.4 (PBS with 0.05% Tween 20) as the running buffer. […] The regeneration was conducted with 1×60s 10 mM glycine pH 1.5, flow 30 μL/min.

The target in assay [2] is T2, CD16aF (FcγRIIIaF) (UniProt P08637 17-208). The assay is described as follows: SPR (Biacore T200); mAb captured on Protein A, FcγR injected; steady-state affinity.
T2 sequence (P08637 17-208): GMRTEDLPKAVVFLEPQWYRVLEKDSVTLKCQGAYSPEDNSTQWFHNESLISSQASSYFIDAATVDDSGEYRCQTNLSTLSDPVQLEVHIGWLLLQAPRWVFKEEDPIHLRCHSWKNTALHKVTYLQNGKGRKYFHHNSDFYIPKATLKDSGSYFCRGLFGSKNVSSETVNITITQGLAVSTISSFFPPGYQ
Method: The analytes were antigens in the FcγR panel (CD16aF, CD16aV, CD32aH, CD32bF; National Research Council, Canada), which were resuspended in PBST containing 3.4 mM EDTA and 0.05% Tween20.
Assay [3] concerns the target T1, FcγRIA (CD64). The assay is described as follows: SPR (Biacore T200), FcγRIA binding; run with TNX06-TNX13.
Assay [4] concerns the target T1, FcγRIA (CD64). The experiment in a line: SPR (Biacore T200); mAb captured on Protein A, FcγRIA injected; run with TNX01-TNX05.
Method: as §1
Assay [5] has as its target T1, FcγRIA (CD64). The experiment in a line: SPR (Biacore T200); mAb captured on Protein A, FcγRIA injected; steady-state end-point analysis.
Method: as §1
For assay [6], the target named is T1, FcγRIA (CD64). The experiment in a line: SPR (Biacore T200), FcγRIA binding.
Assay [7] concerns the target T2, CD16aF (FcγRIIIaF). The experiment in a line: SPR (Biacore T200), low-affinity FcγR panel.
Assay [8] has as its target CD16aV (FcγRIIIaV) (UniProt P08637 17-208). The assay is described as follows: SPR (Biacore T200), low-affinity FcγR panel.
Assay [9] has as its target T3, CD32aH (FcγRIIaH) (UniProt P12318 34-217).
T3 sequence (looked up): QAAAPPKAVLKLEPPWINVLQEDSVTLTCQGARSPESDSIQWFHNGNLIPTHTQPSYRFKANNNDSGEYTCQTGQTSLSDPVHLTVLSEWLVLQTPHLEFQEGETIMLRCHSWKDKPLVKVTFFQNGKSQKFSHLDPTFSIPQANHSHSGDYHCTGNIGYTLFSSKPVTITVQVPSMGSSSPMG
The experiment in a line: SPR (Biacore T200), low-affinity FcγR panel.

T1 sequence (P12314 16-292 limits assumed): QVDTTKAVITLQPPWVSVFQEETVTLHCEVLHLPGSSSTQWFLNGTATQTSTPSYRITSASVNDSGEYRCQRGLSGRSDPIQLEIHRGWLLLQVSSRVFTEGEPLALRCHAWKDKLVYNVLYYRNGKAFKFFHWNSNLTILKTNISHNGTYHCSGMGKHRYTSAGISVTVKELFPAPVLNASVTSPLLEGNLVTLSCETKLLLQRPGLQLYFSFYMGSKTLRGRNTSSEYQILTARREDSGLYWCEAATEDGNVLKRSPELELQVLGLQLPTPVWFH
Chain of CD16aV (FcγRIIIaV) (P08637 17-208 F176V): as the sequence (P08637 17-208) above, with F160V counted along it

B1: TNX05 anti-CD154 monoclonal antibody (antibody, human IgG4 S228P, kappa)
heavy: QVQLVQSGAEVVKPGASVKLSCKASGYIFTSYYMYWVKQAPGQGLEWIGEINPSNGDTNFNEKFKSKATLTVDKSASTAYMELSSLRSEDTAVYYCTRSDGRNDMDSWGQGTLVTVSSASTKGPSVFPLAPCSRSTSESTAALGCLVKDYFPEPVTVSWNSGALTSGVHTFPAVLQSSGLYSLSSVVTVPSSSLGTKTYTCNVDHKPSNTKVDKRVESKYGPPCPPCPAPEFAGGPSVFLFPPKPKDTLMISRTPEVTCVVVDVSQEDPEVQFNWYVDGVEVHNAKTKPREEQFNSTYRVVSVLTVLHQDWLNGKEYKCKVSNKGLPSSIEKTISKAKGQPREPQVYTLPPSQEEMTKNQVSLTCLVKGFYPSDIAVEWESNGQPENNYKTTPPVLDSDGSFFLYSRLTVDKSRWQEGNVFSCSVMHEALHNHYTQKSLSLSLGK
light: DIVLTQSPATLSVSPGERATISCRASQRVSSSTYSYMHWYQQKPGQPPKLLIKYASNLESGVPARFSGSGSGTDFTLTISSVEPEDFATYYCQHSWEIPPTFGGGTKLEIKRTVAAPSVFIFPPSDEQLKSGTASVVCLLNNFYPREAKVQWKVDNALQSGNSQESVTEQDSKDSTYSLSSTLTLSKADYEKHKVYACEVTHQGLSSPVTKSFNRGEC
notes: also called hu5c8 mutated-IgG4 (IgG4 S228P/L235A)
With B1, in [1], the “fold loss of activity (against TNX02)” value was determined as 300 fold. The binding result in assay [2] was “binds”.

B2: TNX02 anti-CD154 monoclonal antibody (antibody, human IgG1, kappa)
heavy: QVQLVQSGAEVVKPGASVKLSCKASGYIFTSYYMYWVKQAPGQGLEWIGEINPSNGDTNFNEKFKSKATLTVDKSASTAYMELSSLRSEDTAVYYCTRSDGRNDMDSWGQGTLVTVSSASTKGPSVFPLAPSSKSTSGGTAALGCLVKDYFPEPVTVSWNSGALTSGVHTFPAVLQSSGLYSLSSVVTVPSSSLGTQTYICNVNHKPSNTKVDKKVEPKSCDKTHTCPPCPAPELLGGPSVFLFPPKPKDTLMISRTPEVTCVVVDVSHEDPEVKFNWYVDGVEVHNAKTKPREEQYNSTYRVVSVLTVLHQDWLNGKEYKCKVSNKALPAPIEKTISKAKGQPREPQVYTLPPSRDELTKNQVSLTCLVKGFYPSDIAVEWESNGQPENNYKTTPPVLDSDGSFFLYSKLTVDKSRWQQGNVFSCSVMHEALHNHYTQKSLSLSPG
light: B1 light
notes: also called IgG1 (wildtype)
For orientation: Kd means a measure of binding affinity in units of concentration. A high value points to weaker binding. B2: the Kd in assay [3] is approximately 0.04 nM; in assay [4] it was approximately 0.03 nM. The binding result in assay [2] is on record as “binds”.

B3: TNX04 anti-CD154 monoclonal antibody (antibody)
heavy: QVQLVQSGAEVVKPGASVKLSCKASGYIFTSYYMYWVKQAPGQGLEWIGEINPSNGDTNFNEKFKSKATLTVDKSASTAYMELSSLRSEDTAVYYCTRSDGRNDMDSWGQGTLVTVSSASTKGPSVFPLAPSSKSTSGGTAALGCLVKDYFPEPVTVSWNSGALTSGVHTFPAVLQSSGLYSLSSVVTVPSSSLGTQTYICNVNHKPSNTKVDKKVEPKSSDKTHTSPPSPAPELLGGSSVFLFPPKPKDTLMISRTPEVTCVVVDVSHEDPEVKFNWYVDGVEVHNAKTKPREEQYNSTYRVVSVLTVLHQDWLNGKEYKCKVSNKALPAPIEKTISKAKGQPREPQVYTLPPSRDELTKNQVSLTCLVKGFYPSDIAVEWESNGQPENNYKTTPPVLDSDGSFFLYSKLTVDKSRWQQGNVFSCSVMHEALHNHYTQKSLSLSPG
light: B1 light
notes: also called IgG1 (C220S, C226S, C229S, P238S)
With B3, in assay [1], the “fold loss of activity (against TNX02)” value turned out to be 11 fold. Further, the binding result in assay [2] is reported as “no binding (tested: 12 µM to 0.062 µM)”.

B4: TNX01 anti-CD154 monoclonal antibody (antibody, human IgG1, kappa, N297Q)
heavy: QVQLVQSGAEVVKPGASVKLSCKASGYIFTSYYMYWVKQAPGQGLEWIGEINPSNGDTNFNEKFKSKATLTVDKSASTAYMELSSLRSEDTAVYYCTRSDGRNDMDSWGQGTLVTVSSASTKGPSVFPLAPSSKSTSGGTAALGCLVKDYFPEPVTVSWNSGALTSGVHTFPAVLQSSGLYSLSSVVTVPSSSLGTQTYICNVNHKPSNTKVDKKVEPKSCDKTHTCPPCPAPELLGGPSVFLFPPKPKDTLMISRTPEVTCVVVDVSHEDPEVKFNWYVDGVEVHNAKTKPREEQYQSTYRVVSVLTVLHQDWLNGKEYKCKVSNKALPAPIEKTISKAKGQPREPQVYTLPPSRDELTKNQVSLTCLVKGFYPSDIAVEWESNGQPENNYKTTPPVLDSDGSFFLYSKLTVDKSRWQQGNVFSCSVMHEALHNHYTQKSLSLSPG
light: B1 light
notes: also called IgG1 (N297Q)
For B4, the “fold loss of activity (against TNX02)” value in [5] was found to be 3000 fold.

B5: TNX12 anti-CD154 monoclonal antibody (antibody, human IgG1, kappa)
heavy: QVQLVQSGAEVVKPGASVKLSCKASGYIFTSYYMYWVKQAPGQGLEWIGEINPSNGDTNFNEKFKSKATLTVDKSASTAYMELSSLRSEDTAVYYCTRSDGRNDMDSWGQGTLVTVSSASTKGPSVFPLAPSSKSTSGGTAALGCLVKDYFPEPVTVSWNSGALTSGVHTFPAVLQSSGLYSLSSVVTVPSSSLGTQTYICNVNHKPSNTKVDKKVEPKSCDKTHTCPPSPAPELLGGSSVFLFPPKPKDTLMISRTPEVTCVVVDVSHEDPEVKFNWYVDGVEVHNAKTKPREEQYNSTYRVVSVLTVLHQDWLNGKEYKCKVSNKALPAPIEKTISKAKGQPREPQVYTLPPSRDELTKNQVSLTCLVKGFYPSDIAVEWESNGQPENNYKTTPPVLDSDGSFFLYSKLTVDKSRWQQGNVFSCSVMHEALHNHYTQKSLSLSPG
light: B1 light
notes: also called IgG1 (C229S, P238S)
Consider B5, for which the binding result in assay [6] is “binds”; in assay [7], “no binding”; in [8] it was “no binding”; in assay [9] it was “no binding”.

B6: TNX06 anti-CD154 monoclonal antibody (antibody, human IgG4, kappa)
heavy: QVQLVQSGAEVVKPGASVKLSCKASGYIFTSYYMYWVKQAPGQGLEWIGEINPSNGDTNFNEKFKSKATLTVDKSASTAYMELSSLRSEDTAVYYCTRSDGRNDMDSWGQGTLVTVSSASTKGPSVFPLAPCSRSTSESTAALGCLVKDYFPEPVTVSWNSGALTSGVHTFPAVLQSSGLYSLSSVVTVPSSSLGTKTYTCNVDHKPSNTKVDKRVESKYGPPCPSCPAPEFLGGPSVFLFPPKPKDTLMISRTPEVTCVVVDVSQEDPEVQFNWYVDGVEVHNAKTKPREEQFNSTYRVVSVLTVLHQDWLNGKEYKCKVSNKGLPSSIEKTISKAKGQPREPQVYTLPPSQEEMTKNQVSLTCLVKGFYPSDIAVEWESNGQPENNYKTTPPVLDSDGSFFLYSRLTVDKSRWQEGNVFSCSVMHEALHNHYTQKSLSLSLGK
light: B1 light
notes: also called IgG4 Wild Type
As to B6, the binding result in assay [6] and in assay [7] was “binds” in each case.

B7: TNX10 anti-CD154 monoclonal antibody (antibody, human IgG1, kappa, L234A L235A)
heavy: not shown
light: B1 light
notes: also called IgG1 (L234A, L235A)
For the molecule B7, the “fold weaker binding than TNX02” value in assay [6] was 1800 fold. The binding result in [7] and in assay [9] was “no binding” in each case. The “fold loss (against TNX02)” value in assay [8] is approximately 12 fold.

B8: TNX11 anti-CD154 monoclonal antibody (antibody, human IgG1, kappa)
heavy: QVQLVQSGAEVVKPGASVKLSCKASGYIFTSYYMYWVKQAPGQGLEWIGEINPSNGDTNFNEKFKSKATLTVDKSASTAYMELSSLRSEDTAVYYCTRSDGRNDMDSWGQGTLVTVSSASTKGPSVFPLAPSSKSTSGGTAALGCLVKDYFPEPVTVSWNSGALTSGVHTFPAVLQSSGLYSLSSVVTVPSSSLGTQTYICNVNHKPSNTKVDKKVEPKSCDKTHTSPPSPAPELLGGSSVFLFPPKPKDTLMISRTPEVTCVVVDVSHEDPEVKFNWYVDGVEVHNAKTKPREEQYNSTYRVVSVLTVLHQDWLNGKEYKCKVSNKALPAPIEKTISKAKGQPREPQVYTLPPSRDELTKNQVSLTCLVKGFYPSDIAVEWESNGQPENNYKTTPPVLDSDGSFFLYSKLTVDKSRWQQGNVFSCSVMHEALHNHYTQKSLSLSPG
light: B1 light
notes: also called IgG1 (C226S, C229S, P238S)
As for B8, the binding result in assay [6] is on record as “binds”.

B9: TNX09 anti-CD154 monoclonal antibody (antibody, human IgG4 S228P, kappa, F234A L235A)
heavy: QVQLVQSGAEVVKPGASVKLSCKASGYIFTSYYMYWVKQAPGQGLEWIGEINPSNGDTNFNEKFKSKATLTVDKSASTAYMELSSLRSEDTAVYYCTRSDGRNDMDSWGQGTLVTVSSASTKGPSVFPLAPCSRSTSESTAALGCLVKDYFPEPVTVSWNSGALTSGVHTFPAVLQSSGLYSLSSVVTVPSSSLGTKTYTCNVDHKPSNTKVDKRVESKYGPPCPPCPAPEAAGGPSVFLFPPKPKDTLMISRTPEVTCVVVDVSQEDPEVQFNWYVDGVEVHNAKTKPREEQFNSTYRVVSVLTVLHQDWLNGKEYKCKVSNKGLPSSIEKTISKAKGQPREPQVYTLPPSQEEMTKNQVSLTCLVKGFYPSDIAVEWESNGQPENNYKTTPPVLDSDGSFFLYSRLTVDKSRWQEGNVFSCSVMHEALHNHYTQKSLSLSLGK
light: B1 light
notes: also called IgG4 (S228P, F234A, L235A)
As for B9, the “fold weaker binding than TNX02” value in assay [6] came to 3800 fold. For the same molecule, the binding result in assay [7] and in [9] was “no binding” throughout. In addition, the “fold loss (against TNX02)” value in assay [8] was approximately 12 fold.

B10: TNX08 anti-CD154 monoclonal antibody (antibody, human IgG4 S228P, kappa)
heavy: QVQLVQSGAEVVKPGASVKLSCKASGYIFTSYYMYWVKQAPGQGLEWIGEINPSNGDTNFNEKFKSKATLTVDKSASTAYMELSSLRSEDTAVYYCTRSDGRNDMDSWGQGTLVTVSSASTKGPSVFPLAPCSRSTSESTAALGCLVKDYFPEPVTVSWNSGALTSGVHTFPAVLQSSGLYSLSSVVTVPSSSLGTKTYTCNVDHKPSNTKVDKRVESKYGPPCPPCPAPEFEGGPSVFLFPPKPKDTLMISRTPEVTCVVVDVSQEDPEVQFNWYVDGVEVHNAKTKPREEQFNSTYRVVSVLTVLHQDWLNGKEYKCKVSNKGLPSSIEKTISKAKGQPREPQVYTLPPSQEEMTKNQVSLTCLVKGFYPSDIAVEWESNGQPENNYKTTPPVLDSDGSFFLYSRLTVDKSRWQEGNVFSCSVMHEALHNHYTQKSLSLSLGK
light: B1 light
notes: also called IgG4 (S228P, L235E)
For the molecule B10, the “fold weaker binding than TNX02” value in assay [6] was determined as 2600 fold. Also, the binding result in [7] is recorded as “binds”.

B11: TNX13 anti-CD154 monoclonal antibody (antibody, human IgG1, kappa)
heavy: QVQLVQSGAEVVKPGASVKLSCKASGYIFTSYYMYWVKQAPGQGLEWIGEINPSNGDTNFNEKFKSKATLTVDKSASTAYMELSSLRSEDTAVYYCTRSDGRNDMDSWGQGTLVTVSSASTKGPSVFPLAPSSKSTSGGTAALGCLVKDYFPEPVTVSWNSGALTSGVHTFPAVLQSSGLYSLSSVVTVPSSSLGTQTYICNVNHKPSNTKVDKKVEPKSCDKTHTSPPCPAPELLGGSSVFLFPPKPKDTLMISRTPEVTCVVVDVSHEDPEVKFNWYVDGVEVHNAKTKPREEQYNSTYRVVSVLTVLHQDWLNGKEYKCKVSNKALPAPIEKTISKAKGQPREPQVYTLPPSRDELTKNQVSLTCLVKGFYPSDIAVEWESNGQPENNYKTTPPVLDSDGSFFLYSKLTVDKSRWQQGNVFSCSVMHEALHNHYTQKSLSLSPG
light: B1 light
notes: also called IgG1 (C226S, P238S)
In the case of B11, the binding result in assay [6] was “binds”; in assay [7] it was “no binding”; in assay [8] it was “no binding”. The “fold loss of binding activity (against TNX02)” value in [9] amounted to 17 fold.

B12: TNX03 anti-CD154 monoclonal antibody (antibody, human IgG1, kappa, N297G)
heavy: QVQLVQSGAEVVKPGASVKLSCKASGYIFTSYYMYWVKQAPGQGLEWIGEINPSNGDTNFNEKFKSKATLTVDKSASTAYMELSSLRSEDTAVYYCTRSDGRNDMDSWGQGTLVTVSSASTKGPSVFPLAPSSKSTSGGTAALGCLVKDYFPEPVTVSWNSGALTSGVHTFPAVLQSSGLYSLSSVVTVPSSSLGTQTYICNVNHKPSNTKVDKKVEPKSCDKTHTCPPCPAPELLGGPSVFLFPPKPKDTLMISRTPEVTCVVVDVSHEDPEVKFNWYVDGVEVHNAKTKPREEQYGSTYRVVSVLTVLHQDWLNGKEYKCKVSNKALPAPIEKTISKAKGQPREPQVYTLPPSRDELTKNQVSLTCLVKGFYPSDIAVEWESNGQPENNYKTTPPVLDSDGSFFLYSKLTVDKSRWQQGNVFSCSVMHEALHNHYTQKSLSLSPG
light: B1 light
notes: also called IgG1 (N297G)
On to B12, for which the “fold loss of activity (against TNX02)” value in assay [5] came to 3000 fold.

For the origin of these results see US20220380478A1 (TONIX PHARMA, published 2022).
